Measurements published in the supplement of paper PMC9112550, “Optimization of the antimicrobial peptide Bac7 by deep mutational scanning” (BMC Biology, 2022).

System: Escherichia coli TOP10
Experiment: shrunken log2 fold change of peptide-encoding DNA abundance (4.5 h post-induction vs induction); higher = less antimicrobial activity (less host growth inhibition)
Conditions: time post-induction: 4.5 h; library: site-saturation at positions 5, 18, 19, 20
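Further: peptides expressed intracellularly from a pBAD plasmid library in pooled LB shake-flask culture, induced with 0.3% L-arabinose, DNA abundance read by NGS, three biological replicates, DESeq2 with apeglm shrinkage.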

| Sequence | shrunken log2 fold change |
| --- | --- |
| RRIRIRPPRLPRPRPRPMPDPRP | 0.0702 |
| RRIRQRPPRLPRPRPRPEYRPRP | 0.0706 |
| RRIRQRPPRLPRPRPRPFGGPRP | 0.0432 |
| RRIRWRPPRLPRPRPRPFYEPRP | -0.579 |
| RRIRPRPPRLPRPRPRPNWRPRP | 0.392 |
| RRIRHRPPRLPRPRPRPFNGPRP | -0.118 |
| RRIRVRPPRLPRPRPRPVQIPRP | -0.0141 |
| RRIRGRPPRLPRPRPRPNRKPRP | 0.195 |
| RRIRPRPPRLPRPRPRPTLTPRP | 1.22 |
| RRIRRRPPRLPRPRPRPTPQPRP | 1.52 |
| RRIRRRPPRLPRPRPRPWEIPRP | -0.0233 |
| RRIRVRPPRLPRPRPRPGFNPRP | -0.0909 |
| RRIRTRPPRLPRPRPRPHQMPRP | 0.0521 |
| RRIRERPPRLPRPRPRPRSAPRP | 0.25 |
| RRIRGRPPRLPRPRPRPRMVPRP | 0.643 |
| RRIRLRPPRLPRPRPRPPIDPRP | 0.13 |
| RRIRHRPPRLPRPRPRPTAHPRP | -0.173 |
| RRIRSRPPRLPRPRPRPGNIPRP | -0.281 |
| RRIRKRPPRLPRPRPRPMWCPRP | -0.113 |
| RRIRQRPPRLPRPRPRPHPWPRP | 0.0242 |

| Sequence | shrunken log2 fold change |
| --- | --- |
| RRIRRRPPRLPRPRPRPECWPRP | 0.958 |
| RRIRIRPPRLPRPRPRPLDKPRP | -0.141 |
| RRIRMRPPRLPRPRPRPKRQPRP | 0.0602 |
| RRIRTRPPRLPRPRPRPQSQPRP | -0.138 |
| RRIRDRPPRLPRPRPRPCEQPRP | 0.0856 |
| RRIRVRPPRLPRPRPRPKYIPRP | -0.821 |
| RRIRKRPPRLPRPRPRPCQTPRP | 0.233 |
| RRIRKRPPRLPRPRPRPCFQPRP | -0.112 |
| RRIRKRPPRLPRPRPRPEMNPRP | 2.14 |
| RRIRQRPPRLPRPRPRPQNVPRP | -0.0161 |
| RRIRFRPPRLPRPRPRPLYAPRP | -0.119 |
| RRIRNRPPRLPRPRPRPYQCPRP | -0.00804 |
| RRIRIRPPRLPRPRPRPHNNPRP | -0.313 |
| RRIRERPPRLPRPRPRPPQYPRP | -0.517 |
| RRIRPRPPRLPRPRPRPEEAPRP | 0.0763 |
| RRIRIRPPRLPRPRPRPVAGPRP | -0.0858 |
| RRIRLRPPRLPRPRPRPDITPRP | -0.00678 |
| RRIRRRPPRLPRPRPRPQWCPRP | 0.00425 |
| RRIRNRPPRLPRPRPRPTYWPRP | -0.101 |
| RRIRHRPPRLPRPRPRPVPAPRP | -0.0665 |

| Sequence | shrunken log2 fold change |
| --- | --- |
| RRIRSRPPRLPRPRPRPWQLPRP | -0.018 |
| RRIRCRPPRLPRPRPRPNVCPRP | -0.00167 |
| RRIRVRPPRLPRPRPRPTWVPRP | 0.228 |
| RRIRIRPPRLPRPRPRPRKMPRP | 0.142 |
| RRIRQRPPRLPRPRPRPTRRPRP | 0.556 |
| RRIRSRPPRLPRPRPRPDETPRP | -0.0257 |
| RRIRERPPRLPRPRPRPHNSPRP | -0.156 |
| RRIRDRPPRLPRPRPRPMSEPRP | -0.00582 |
| RRIRPRPPRLPRPRPRPNASPRP | 0.0199 |
| RRIRFRPPRLPRPRPRPVKLPRP | 0.294 |
| RRIRVRPPRLPRPRPRPANTPRP | -0.0315 |
| RRIRDRPPRLPRPRPRPVQGPRP | -0.01 |
| RRIRSRPPRLPRPRPRPAALPRP | -0.0411 |
| RRIRGRPPRLPRPRPRPAFVPRP | 0.373 |
| RRIRYRPPRLPRPRPRPWIIPRP | -0.384 |
| RRIRKRPPRLPRPRPRPNMNPRP | 0.394 |
| RRIRIRPPRLPRPRPRPDVFPRP | -0.115 |
| RRIRCRPPRLPRPRPRPDGLPRP | -0.0371 |
| RRIRHRPPRLPRPRPRPNWAPRP | -0.0735 |
| RRIRFRPPRLPRPRPRPTKSPRP | 0.106 |
